Test results published in paper PMC3724922 (PLoS ONE, 2013).

Assays:
[1] = biological target: the molecule itself; assay: native gel or EMSA; purified recombinant proteins, non-reducing, non-denaturing electrophoresis (SDS- and DTT-free loading buffer), immunoblot with anti-laforin or anti-HIS antibody; self-association, monomer and dimer bands
[2] = biological target: the molecule itself; assay: native gel or EMSA; purified recombinant proteins incubated with 10 mM H2O2, then non-reducing, non-denaturing electrophoresis, anti-laforin immunoblot

| Protein | binding result [1] | binding result [2] |
| --- | --- | --- |
| laforin C109S/110S, recombinant, no epitope tag (enzyme, human, UniProt O95278 1-331, looked up, laforin, human, 331 amino acids (EPM2A), double mutant C109S/110S; source: E. coli BL21 (RIL), pET21b+, purified (amylose resin)) MRFRFGVVVPPAVAGARPELLVVGSRPELGRWEPRGAVRLRPAGTAAGDGALALQEPGLWLGEVELAAEEAAQDGAEPGRVDTFWYKFLKREPGGELSWEGNGPHHDRSSTYNENNLVDGVYCLPIGHWIEATGHTNEMKHTTDFYFNIAGHQAMHYSRILPNIWLGSCPRQVEHVTIKLKHELGITAVMNFQTEWDIVQNSSGCNRYPEPMTPDTMIKLYREEGLAYIWMPTPDMSTEGRVQMLPQAVCLLHALLEKGHIVYVHCNAGVGRSTAAVCGWLQYVMGWNLRKVQYFLMAKRPAVYIDEEALARAQEDFFQKFGKVRSSVCSL | binds | – |
| laforin wild type, recombinant, no epitope tag (enzyme, human, UniProt O95278 1-331, looked up, laforin, human, a 331 amino acid protein encoded by EPM2A; amplified from pEG202-laforin into pET21b+ (NdeI, NotI); also called laforin WT; wt laforin; source: E. coli BL21 (RIL), pET21b+-laforin, purified (amylose resin)) MRFRFGVVVPPAVAGARPELLVVGSRPELGRWEPRGAVRLRPAGTAAGDGALALQEPGLWLGEVELAAEEAAQDGAEPGRVDTFWYKFLKREPGGELSWEGNGPHHDRCCTYNENNLVDGVYCLPIGHWIEATGHTNEMKHTTDFYFNIAGHQAMHYSRILPNIWLGSCPRQVEHVTIKLKHELGITAVMNFQTEWDIVQNSSGCNRYPEPMTPDTMIKLYREEGLAYIWMPTPDMSTEGRVQMLPQAVCLLHALLEKGHIVYVHCNAGVGRSTAAVCGWLQYVMGWNLRKVQYFLMAKRPAVYIDEEALARAQEDFFQKFGKVRSSVCSL | – | binds |
| laforin C169S, recombinant, no epitope tag (enzyme, human, UniProt O95278 1-331, looked up, laforin, human, 331 amino acids (EPM2A), mutant C169S; source: E. coli BL21 (RIL), pET21b+, purified (amylose resin)) MRFRFGVVVPPAVAGARPELLVVGSRPELGRWEPRGAVRLRPAGTAAGDGALALQEPGLWLGEVELAAEEAAQDGAEPGRVDTFWYKFLKREPGGELSWEGNGPHHDRCCTYNENNLVDGVYCLPIGHWIEATGHTNEMKHTTDFYFNIAGHQAMHYSRILPNIWLGSSPRQVEHVTIKLKHELGITAVMNFQTEWDIVQNSSGCNRYPEPMTPDTMIKLYREEGLAYIWMPTPDMSTEGRVQMLPQAVCLLHALLEKGHIVYVHCNAGVGRSTAAVCGWLQYVMGWNLRKVQYFLMAKRPAVYIDEEALARAQEDFFQKFGKVRSSVCSL | binds | – |
| laforin C266S, recombinant, no epitope tag (enzyme, human, UniProt O95278 1-331, looked up, laforin, human, 331 amino acids (EPM2A), catalytic cysteine mutant C266S; source: E. coli BL21 (RIL), pET21b+, purified (amylose resin)) MRFRFGVVVPPAVAGARPELLVVGSRPELGRWEPRGAVRLRPAGTAAGDGALALQEPGLWLGEVELAAEEAAQDGAEPGRVDTFWYKFLKREPGGELSWEGNGPHHDRCCTYNENNLVDGVYCLPIGHWIEATGHTNEMKHTTDFYFNIAGHQAMHYSRILPNIWLGSCPRQVEHVTIKLKHELGITAVMNFQTEWDIVQNSSGCNRYPEPMTPDTMIKLYREEGLAYIWMPTPDMSTEGRVQMLPQAVCLLHALLEKGHIVYVHSNAGVGRSTAAVCGWLQYVMGWNLRKVQYFLMAKRPAVYIDEEALARAQEDFFQKFGKVRSSVCSL | binds | – |
| laforin C205S, recombinant, no epitope tag (enzyme, human, UniProt O95278 1-331, looked up, laforin, human, 331 amino acids (EPM2A), mutant C205S; source: E. coli BL21 (RIL), pET21b+, purified (amylose resin)) MRFRFGVVVPPAVAGARPELLVVGSRPELGRWEPRGAVRLRPAGTAAGDGALALQEPGLWLGEVELAAEEAAQDGAEPGRVDTFWYKFLKREPGGELSWEGNGPHHDRCCTYNENNLVDGVYCLPIGHWIEATGHTNEMKHTTDFYFNIAGHQAMHYSRILPNIWLGSCPRQVEHVTIKLKHELGITAVMNFQTEWDIVQNSSGSNRYPEPMTPDTMIKLYREEGLAYIWMPTPDMSTEGRVQMLPQAVCLLHALLEKGHIVYVHCNAGVGRSTAAVCGWLQYVMGWNLRKVQYFLMAKRPAVYIDEEALARAQEDFFQKFGKVRSSVCSL | binds | – |
| laforin C123S, recombinant, no epitope tag (enzyme, human, UniProt O95278 1-331, looked up, laforin, human, 331 amino acids (EPM2A), mutant C123S; source: E. coli BL21 (RIL), pET21b+, purified (amylose resin)) MRFRFGVVVPPAVAGARPELLVVGSRPELGRWEPRGAVRLRPAGTAAGDGALALQEPGLWLGEVELAAEEAAQDGAEPGRVDTFWYKFLKREPGGELSWEGNGPHHDRCCTYNENNLVDGVYSLPIGHWIEATGHTNEMKHTTDFYFNIAGHQAMHYSRILPNIWLGSCPRQVEHVTIKLKHELGITAVMNFQTEWDIVQNSSGCNRYPEPMTPDTMIKLYREEGLAYIWMPTPDMSTEGRVQMLPQAVCLLHALLEKGHIVYVHCNAGVGRSTAAVCGWLQYVMGWNLRKVQYFLMAKRPAVYIDEEALARAQEDFFQKFGKVRSSVCSL | binds | – |
| wild type laforin with an amino-terminal HIS6 epitope (enzyme, human, UniProt O95278 1-331, looked up, laforin, human, 331 amino acids (EPM2A); The plasmid of the His6 constructs is not described in the methods; also called laforin-WT; WT; not shown: His6, N-terminal, kept) MRFRFGVVVPPAVAGARPELLVVGSRPELGRWEPRGAVRLRPAGTAAGDGALALQEPGLWLGEVELAAEEAAQDGAEPGRVDTFWYKFLKREPGGELSWEGNGPHHDRCCTYNENNLVDGVYCLPIGHWIEATGHTNEMKHTTDFYFNIAGHQAMHYSRILPNIWLGSCPRQVEHVTIKLKHELGITAVMNFQTEWDIVQNSSGCNRYPEPMTPDTMIKLYREEGLAYIWMPTPDMSTEGRVQMLPQAVCLLHALLEKGHIVYVHCNAGVGRSTAAVCGWLQYVMGWNLRKVQYFLMAKRPAVYIDEEALARAQEDFFQKFGKVRSSVCSL | binds | – |
| laforin C250S, recombinant, no epitope tag (enzyme, human, UniProt O95278 1-331, looked up, laforin, human, 331 amino acids (EPM2A), mutant C250S; source: E. coli BL21 (RIL), pET21b+, purified (amylose resin)) MRFRFGVVVPPAVAGARPELLVVGSRPELGRWEPRGAVRLRPAGTAAGDGALALQEPGLWLGEVELAAEEAAQDGAEPGRVDTFWYKFLKREPGGELSWEGNGPHHDRCCTYNENNLVDGVYCLPIGHWIEATGHTNEMKHTTDFYFNIAGHQAMHYSRILPNIWLGSCPRQVEHVTIKLKHELGITAVMNFQTEWDIVQNSSGCNRYPEPMTPDTMIKLYREEGLAYIWMPTPDMSTEGRVQMLPQAVSLLHALLEKGHIVYVHCNAGVGRSTAAVCGWLQYVMGWNLRKVQYFLMAKRPAVYIDEEALARAQEDFFQKFGKVRSSVCSL | binds | – |
